According to PMC3145919 (Neuron, 2011):
Like-named read-outs stand apart in the source and are kept apart here. Each block holds one molecule with its values, some of them ahead of it.

Experiments:
[1] = molecular target: GluR6Δ2 F58A mutant ATD (rat) (UniProt P42260); assay: AUC
[2] = molecular target: GluR6Δ2 ATD (G215N/M217T glycan wedge mutant) (rat) (UniProt P42260); assay: AUC
[3] = molecular target: KA2 amino terminal domain (ATD), wild type (rat) (UniProt Q63273); assay: AUC
[4] = molecular target: KA2 amino terminal domain (ATD), wild type (rat) (UniProt Q63273); assay: AUC; remark: listed apart in the source
SEC-MALS = molecular target: the molecule itself; assay: SEC-MALS
AUC [5] = molecular target: the molecule itself; assay: AUC
AUC [6] = molecular target: the molecule itself; assay: AUC; remark: listed apart in the source
AUC [7] = molecular target: the molecule itself; assay: AUC; remark: listed apart in the source

Kd [1]: 1.63 µM
Kd [2]: 0.14 µM
Molecule: KA2 Y57A mutant ATD (domain or fragment)

Kd [1]: 2 µM
Molecule: KA2 Y57A/E156A mutant ATD (domain or fragment)

Kd [1]: 6.7 µM
Molecule: KA2 Y57A/L163A mutant ATD (domain or fragment)

Kd [1]: 13 µM
Molecule: KA2 Y57A/S165G/T168A mutant ATD (domain or fragment)

Kd [3]: 350 µM
Kd [4]: 410 µM
Molecule: KA2 amino terminal domain (ATD), wild type (from UniProt Q63273 20-406) (domain or fragment)

B1: GluR6 amino terminal domain (ATD), wild type (domain or fragment, rat)
chain: TTHVLRFGGIFEYVESGPMGAEELAFRFAVNTINRNRTLLPNTTLTYDTQKINLYDSFEASKKACDQLSLGVAAIFGPSHSSSANAVQSICNALGVPHIQTRWKHQVSDNKDSFYVSLYPDFSSLSRAILDLVQFFKWKTVTVVYDDSTGLIRLQELIKAPSRYNLRLKIRQLPADTKDAKPLLKEMKRGKEFHVIFDCSHEMAAGILKQALAMGMMTEYYHYIFTTLDLFALDVEPYRYSGVNMTGFRILNTENTQVSSIIEKWSMERLQAPPKPDSGLLDGFMTTDAALMYDAVHVVSVAVQQFPQMTVSSLQCNRHKPWRFGTRFMSLIKEAHWEGLTGRITFNKTNGLRTDFDLDVISLKEEGLEKIGTWDPASGLNMTESQKGK
modifications: N-linked glycans
binding result (SEC-MALS): binds

B2: wt GluR6/KA2 ATD heterodimer (complex, rat)
chain 1: TTHVLRFGGIFEYVESGPMGAEELAFRFAVNTINRNRTLLPNTTLTYDTQKINLYDSFEASKKACDQLSLGVAAIFGPSHSSSANAVQSICNALGVPHIQTRWKHQVSDNKDSFYVSLYPDFSSLSRAILDLVQFFKWKTVTVVYDDSTGLIRLQELIKAPSRYNLRLKIRQLPADTKDAKPLLKEMKRGKEFHVIFDCSHEMAAGILKQALAMGMMTEYYHYIFTTLDLFALDVEPYRYSGVNMTGFRILNTENTQVSSIIEKWSMERLQAPPKPDSGLLDGFMTTDAALMYDAVHVVSVAVQQFPQMTVSSLQCNRHKPWRFGTRFMSLIKEAHWEGLTGRITFNKTNGLRTDFDLDVISLKEEGLEKIGTWDPASGLNMTESQKGK
chain 2: VLSSLRMAAILDDQTVCGRGERLALALAREQINGIIEVPAKARVEVDIFELQRDSQYETTDTMCQILPKGVVSVLGPSSSPASASTVSHICGEKEIPHIKVGPEETPRLQYLRFASVSLYPSNEDVSLAVSRILKSFNYPSASLICAKAECLLRLEELVRGFLISKETLSVRMLDDSRDPTPLLKEIRDDKVSTIIIDANASISHLVLRKASELGMTSAFYKYILTTMDFPILHLDGIVEDSSNILGFSMFNTSHPFYPEFVRSLNMSWRENCEASTYPGPALSAALMFDAVHVVVSAVRELNRSQEIGVKPLACTSANIWPHGTSLMNYLRMVEYDGLTGRVEFNSKGQRTNYTLRILEKSRQGHREIGVWYSNRTLAMNATTLDI
modifications: N-linked glycans | N-linked glycans
Kd (AUC [5]): 6.2 µM

B3: GluR6Δ2 ATD (G215N/M217T glycan wedge mutant) (domain or fragment, rat)
chain: TTHVLRFGGIFEYVESGPMGAEELAFRFAVNTINRNRTLLPNTTLTYDTQKINLYDSFEASKKACDQLSLGVAAIFGPSHSSSANAVQSICNALGVPHIQTRWKHQVSDNKDSFYVSLYPDFSSLSRAILDLVQFFKWKTVTVVYDDSTGLIRLQELIKAPSRYNLRLKIRQLPADTKDAKPLLKEMKRGKEFHVIFDCSHEMAAGILKQALAMNMTTEYYHYIFTTLDLFALDVEPYRYSGVNMTGFRILNTENTQVSSIIEKWSMERLQAPPKPDSGLLDGFMTTDAALMYDAVHVVSVAVQQFPQMTVSSLQCNRHKPWRFGTRFMSLIKEAHWEGLTGRITFNKTNGLRTDFDLDVISLKEEGLEKIGTWDPASGLNMTESQKGK
modifications: N-linked glycans, one introduced by the mutations (glycan wedge)
Kd (AUC [6]): 0.35 µM
Kd (AUC [7]): 0.25 µM
stoichiometry N (SEC-MALS): 2

B4: GluR6Δ1 ATD (A213N/G215S glycan wedge mutant) (domain or fragment, rat)
chain: TTHVLRFGGIFEYVESGPMGAEELAFRFAVNTINRNRTLLPNTTLTYDTQKINLYDSFEASKKACDQLSLGVAAIFGPSHSSSANAVQSICNALGVPHIQTRWKHQVSDNKDSFYVSLYPDFSSLSRAILDLVQFFKWKTVTVVYDDSTGLIRLQELIKAPSRYNLRLKIRQLPADTKDAKPLLKEMKRGKEFHVIFDCSHEMAAGILKQALNMSMMTEYYHYIFTTLDLFALDVEPYRYSGVNMTGFRILNTENTQVSSIIEKWSMERLQAPPKPDSGLLDGFMTTDAALMYDAVHVVSVAVQQFPQMTVSSLQCNRHKPWRFGTRFMSLIKEAHWEGLTGRITFNKTNGLRTDFDLDVISLKEEGLEKIGTWDPASGLNMTESQKGK
modifications: N-linked glycans, one introduced by the mutations (glycan wedge)
stoichiometry N (SEC-MALS): 2
